Assay: yeast display, Sf9 membrane polyspecificity reagent, FACS + sequencing; frameworks hold sequencing errors
Summary of the method: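 Nanobodies from a synthetic yeast display library (Saccharomyces cerevisiae BJ5465), induced 36–48 hours with galactose, were stained 1 hour at 4 °C with 10% biotinylated, detergent-solubilized Sf9 membrane reagent, enriched on streptavidin microbeads, then FACS-sorted. Anti-HA (expression) and streptavidin (reagent binding) fluorescence set low and high (top ~1%) gates. Polyreactivity labels come from the gate of origin. Genes were colony-PCR amplified, MiSeq 2 × 250 sequenced and filtered by CDR length.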

Row | Sequence | polyreactivity (PSR sort gate)
1 | QVQLVESGGGLVQAGGSLRLSCAASGSIFNRNAMGWYRQAPGKERELVAAINYSGGSTYYADSVKGRFTISRDNAKNTVYLQMNSLKPEDTAVYYCAARPVALRKYDYWGQGTQVTVSS | low polyreactivity
2 | QVQLVESGGGLVQAGGSLRLSCAASGSTYRANAMGWYRQAPVKERELFASITNSGSSTYYADSVKGRFTISRDNAKNTVYLQMNSLKPEDTAVYYCNAERTIAGYYYWGQGTQVTVSS | low polyreactivity
3 | QVQLVESGGGLVQAGGSLRLSCAASGITFLYYAMGWYRQAPGKERELVAAITRGGRTNYADSVKGRFTISRDNAKNTVYLQMNSLKPEDTAVYYCAARRSRPTYYSTGVNYWGQGTQVTVSS | high polyreactivity
4 | QVQLVESGGGLVQAGGSLRLSCAATRSTIQANTIGWYRQAPGKERALVAAISIRGANTYYADSVKGRLTISRDNAKNTFYLQMNSLKREDSAVYYCATRVGKYSLSLDYWGQGTQVTVSS | high polyreactivity
5 | QVQLVESGGGIVQAGGSLRLSCAGSGGILGDNTMGWYGHAPGKERELGASITRGGTTNYADSLTGRFTISREHAKNTVYFQKISLKPVDTAVYYCNAAVERFGDSPDYDYWGQGTQVTVSS | low polyreactivity
6 | QVQLVESGGGLVQAGGSLRLSCAASGFTFGIYAMGWYRQAPGKERELVAAINVSDGSTYYADSVKGRFTISRDNAKNTVYLQMNILKPEDTAVYYCAAYLYVTIYTSYREYDYWGQGTQVTVSS | low polyreactivity
7 | QVQLVESGGGLVQAGGSLRLSCAASGRTFSPNSMVWYRPAPGKERELVAAITRSDGRTYYADSVKGRFTISRDNAKNTVYLQMNSLKPEDTAVYYCAVDGYYPPAWYEYDYWGQGTQVTVSS | high polyreactivity
8 | QVQLVESGGGIVQAGGSLRLSCAASGFTFRTYTQGWYRQAPGKERELVAAIRSSGGGTYYADSVKGRFTISRDNAKNTVYLQMNSLKPEDTAVYYCIAVRYNSVGYDFWGQGTQVTVSS | high polyreactivity
9 | QVQLVESGGGLVQAGGSLRISCAASGSIFAWNAMGWYRQAPGKERELVAAISRSGGRTYYADSVKGRFTISRDNAKNTVYLQMNSLKPEDTAVYYCNAYGLRWASRLGYDYWGQGTQVTVSS | high polyreactivity
10 | QVQLVESGGGLVQAGGSLRLSCAASGSICGWYVLGWYRQAPGKEMELVAAITWSAARTYYADSVKGRFTISRDNAKITVYLQMNSLKPEDTAVYYCAADHVSYQPSCRIFDYWGQGTQVTVSS | low polyreactivity
11 | QDQLVESGGGLVQAGGSLRLICAASGRSLIHYAMGWYRQAPGKERELVASMTYSGGSTYYADSVKGRFTISRDNAKMTVYLQMNSLKPEDTAVYYCAATLGNRWFHYNYWGQGTQVTVSS | low polyreactivity
12 | QVQLVESGGGLVQAGGSLRLSCAASGRIFDLYTMGWYRQATGKERELVAAIRWSDGSTYYADSVKGRFTISRDNAKNSVYLQMNSLKPVDTAVYYCAADTRTSYYNDDYDYWGQGTQVTVSS | low polyreactivity
13 | QDQLVESGGGLVQAGGSLRLSCAASGSTFTYNTKGWYRQAPGKERELVAAITTSGGNTYYADSVKGRFTISRDNAKNTVYLQMNSLKPVDTAVYYCAAGYSWAEGDYWGQGTQVTVSS | low polyreactivity
14 | QVQLVESGGGLVQAGGSLRLSCAASGSTFGPNAMGWYRQAPGKERELVAAIRSQGGRTYYAYSVKGRFTISRDNAKNSVYLQMNSLIPEDTAVYYCGDPHYPYDTPYGYWGQGTQVTVSS | low polyreactivity
15 | QVQLVESGGGLVQAGGSLRLSCAASGSTFAFYDMGWYRQAPGKERELVAIIDWSGGRTYYADSVKGRFTISRDNAKNTVYLQMNSLKPEDTAVYYCNAENTYLGSRYRPYNYWGQGTQVTVSS | low polyreactivity
16 | QVHLVESGGGLVKAGGSLRLSCAASGSTFYANAMGWYRQAPGKEREFVASITWSGGSTYYADSVKGRFTISRDNAKNTVYLQMNSLKPEDTSVYYCAANIGHNGFDYWGQGTQVNVSS | low polyreactivity
17 | QVQLVESGGGLVQAGGSLRLSCAASGFILERYAMGWYRQAPGKERELVAAISSVGNTNYADSVKGRFTISRDNAKNTVYFQMNSLKPEDTAVYYCAAEGAFPIYDYWGQGTQVTVSS | low polyreactivity
18 | QVQLVESGGGLVQAGGSLRLSCAASGSIFYTYVMGWYRQAPGKERELVAAISASGVRTYYADSVKGRFTISRDNAKNTVYLQMNSLKPEDTAVYYCAADRQRADYYWGQGTQVTVSS | high polyreactivity
19 | QVQLVESGGGLVQAGGSLRLICAASGRTIWSNAMGRYRHAPGKEWEFVAGISQDGTSRYYADSVKGRFTISRDNAKNTVYLQMNSLKPEDTAVYYCAARSSFRRRSGPTPYGFDYWGQGTQVTVSS | high polyreactivity
20 | QVQLVESGGGLVQAGGSLRLSCAASGRIFTGNAMGWYRQAPGKERELVATITRRGGSTYYADSVKGRFTISRDHAKNTVYLQMNSLKPEDTAVYYCDANRLFSYDKYGYWGQGTQVTVSS | high polyreactivity
21 | QVQLVESGGGLVQAGGSLRLSCAASGSIIAYNAMGWYRQAPGKERELVAAISYSGDGTYYADSVKGRFTISRDNANNTVYLQMNSLKPEDTAVYFCDTQIYPLVFYQGDWNDYWGQGTQVTVSS | low polyreactivity
22 | QVQLVESGGGLVQAGGSLRLSCAASGFTFYRYTMGWYRQPPGKERELVAAISARGVSTYYADSVKGRFTISRDNAKNTVYLQMNSLKPEDTAVYYCYVSRYDSWGQGTQVTVSS | high polyreactivity

Row | Sequence | polyreactivity (PSR sort gate)
23 | QVQRVESGGGLVQAGGSHPLSCAASGITLRYYAMGWYRQAPGKERELVAAISGRGGGTYYADSVKGRFTISRDNAKNTVYLQMNSLKPEDTAVYYCNAVGQQQVEYEYWGQGTQVTVSS | high polyreactivity
24 | QVQLVESGGGLDQARGSLRLSCAASGFTFKFYAMGWYRQSPGKEREFVAAISGSGDSTYADSVKGRFTISRDNAKNTVYLQMNSLKPEDTAVYYCNARYAGVPWWGYYSSEVNYWGQGTQVTVSS | low polyreactivity
25 | QVQLVESGGGLVQAGGSLRLSCDASGIIFNTYAMGWYRQAPGKERELVAAISSSGGRTYYADSVKGRFTISRDYAKNTVYLQMNSLKPEDTAVYFCAADYRGGIRYYRGAAYNYWGQGTQVTVSS | high polyreactivity
26 | QVQLVESGGGLFQAGGSLRLSCAASGFIFYYNTMGWYRQAPGKERELVAAISSGGRTYYADSVKGRFTISRDNAKNTVYLQMNSLKPEDTAVYYCNVVTYVKYGCWGQGTQVTVSS | high polyreactivity
27 | QDQHVESGGGLVQAGGSLRLSGAASGRTVGWYAMGWYRQAHGKVRELVAAITSSVDSTYYADSVKGRFTISRDNAKNTVYLLMNRLKPEDTAVYYCAADYDDGFYLYDYWGQGTQVTVSS | low polyreactivity
28 | QVQLVESGGGLVQAGGTLRLSGAASGSTFFFNAMGWYRQAPGKEWELVAAITGSGGSTYYADSVQGRFTISRDNAKNTVYLQMNSLKPEDTAVYYCAAYGAKPSEYYWGQGTQVTVSS | low polyreactivity
29 | QVQLVESGGGLVQAGGSLRLSCAASGRTFDRNAMGWYRQAPGKERELVAAITSRGGRTYYADSVKGRFTISRDNAKNTVYLQMKSLKPEDTAVYYCAADLFSSRVRSNFDYWGQGTQVTVSS | high polyreactivity
30 | QGQLVESGRGLVQAGGSLRLSCAASGRIFVIYDIGWYRQAPGKEREFVAAISWRSGSTYYADSVKGRFTISRDNAKNTVYLQMNSLKPDDTAVYDCNKDYHVRYYYWGQGTQVTVSS | low polyreactivity
31 | QVQLVESGGGLVQAGGSLLLSCSASVLIFYDNDMGWYRQAPGKERVFVAAITSLGGSTYYADSVKGRFTISRDNAKNTVYLQMNSLKPEDTAVYYCNVKSKYYSPNYDYWGQVTQVTVSS | low polyreactivity
32 | QVQLEESGGGLVQAGGSLRLSCAASGITFISYAMGWYRQAPGKERELVAVISKSGGRTYYADSVKGRFTISRDNAKNTVYLQMNSLKPEDTAVYYCAATKRYASGMYYWGQGTQVTVSS | high polyreactivity
33 | QVQLVESGGGLVQAGGSLRLRCAASGSTFQRYAMGWYRQAPGKERELVAAITWSGGSTKYADSVKGRFTISRDNAKTTVYLQMNCLKPEDTAVYYCARTYLSSRWGQGTQVTVSS | low polyreactivity
34 | QVQLVESGGGLVQAGGSLRLSCAASGSTFGLYAMGWYRQAPGKERELVADITWSGGSTYYADSVKGRFTISRDNAKNTVYLQMNSMKPEDTAVYYCAARYAWVYYDFDYCGQGTQVTVSS | low polyreactivity
35 | QVQIEDSGGGLVQAGGSLRLSCAASGSTLRGYAMGWYRHAPGKERELVAAISKNGGSTYYADSVKGRFTISRDKAKYTVYLQMNSLKPEDTAVYYCAAVGYYTKRRFGYWGQGTQVTVSS | high polyreactivity
36 | QVQLVESGGGLVQAVGSLRLSCDASGSTFYPYAIGWYRQAPAKESELVARITRGVGSTYYADSVKGRFTISRDNAKNTVYLQMNSLIPEDTAVYYCNRVEYFTVWGYDYWGQGTQVTVSS | low polyreactivity
37 | QVQLVESGGGLVQAGGSLRLSCAASGITLTRYAMGWYRQAPGKERELVAAITWSGGSTYYADSVKGRFTISRDNAKNTVYLQMNSLKPEDTAVYYCAAEYYEWVFWGYDYWGQGTQVTVSS | high polyreactivity
38 | QVQLVESGGGLVQAGGSLRLTCAASGFIFKIYARGWYRQAPGKERELVARITRSGGSTYYADSVKGRFTISRDNAKNTVYLQMNSLKPEDTAVYSCNAELFRYVRYDYWGQGTQVTVSS | high polyreactivity
39 | QVQLVESGGGLVQAGGSLRLSCAASGRTFFTYAMGWYRQAPGKERELVASITSSGVSTYYADSVKGRFTISRDNAKNTVYLQINRLKPEDTAVYHCNTRYPYYWPIYGYWGQGTQVTVSS | high polyreactivity
40 | QVQLVESGGGLVQAGGSLRLTCAASGSTFKYYAMGWYRQAPGKERELVAAIDWNGGRTYYADSVKGRFTISRDNAKNTVYLQMNSLKPEDTAVYYCAKLGRAAQGNYYWGQGTQVTVSS | high polyreactivity
41 | QVQLVESGGGLVQAGGSLRLICAASGSTFDGNVMGWYRQAPGKERELVADIDSGGSTNYADSVKGRFTISRDNAKNTVYLQMNSLKPEDTAFYYCNAEWDDSFIRWFRYRGNYWGQGTQVTVSS | low polyreactivity
42 | QVQLVESGGGLVQAGGSLRLSCASSGRIFWRNTMGWYRQAPVKETEFVASINGSGGSTSYADSVKGRFTISRDNAMNTVYLQMISLKPEDTEVDYCATDVTYQDVQLDYWGQRTQVTVSS | low polyreactivity
43 | QVQLVESGGRLVQAGGILRLSCAASGRSFYFYAMGWYRKAPGKERELVAAITRGDDTNYADSVKGRFTISRDNAKNTVNLQMNSLKPEDTAVYYFGYATEYDYWGQGTQVTVSS | low polyreactivity

— the nanobody polyreactivity screen of Harvey et al. (2022)
